Source: a protein production outcome set (Wang et al. 2014)

assay: label from the status in PepcDB records

Protein production, failed:
YAVQICKGMDYLGSRQYVHRDLAARNVLVESEHQVKIGDFGLTKAIETDKEYYTVKDDRDSPVFWYAPECLMQSKFYIASDVWSFGVTLHELLTYCDSDSSPMALFLKMIGPTHGQMTVTRLVNTLKEGKRLPCPPNCPDEVYQLMRKCWEFQPSNRTSFQNLIEGFEALLK, YDAILLIDYRQRRIIDCNQTAQKLLGYSKEELRLLPPYRLLRAMSARSIKPIFQDILAKRREIHDITLLSQSGEQLLGQLSFNTLQEED, YLIKFDRIAVPMAEGRSSRRVLHIAFAFASAMGSEITAITVRDQAKDITWTNKITVVTNAYKEGLSQNIKVVPKILTSSDVKSALVEELNRHSYDIVIIASEKRSIITRITSGPVSNYVIKKSNIPTALV, YYNIYYPRGKDFYNVGGDYKFFWKRFSLLGETAIDKCGTWATMNMLRYSPKGGTQLIVMNRYYDAKYQSVYARSIGEGSTVQNESGFYIGLETSILKYIKMTCYGDFFYFPWKKYLVSKAGTKGLDGLLQLSYSPTYELEMFIRYRYKKKEKDFTAADKTKQTIPSIQQKCRYQLNYSVKDKLTLKTIADYVRINFRGQSASNGFLVSQSAAYTFHLLPLQLDLSAAWFNTDDYNSRLTIYEKSVLYAFSMPSFYYKGMRVAVNARYELNKHIILQAKYGTTHYFNRDKISSALEEIDGSTKSDLYLQLRLKF

Protein production, not failed:
YKELDVHLRRMESGFGFRILGGDEPGQPILIGAVIAMGSADRDGRLHPGDELVYVDGIPVAGKTHRYVIDLMHHAARNGQVNLTVRRKVL, YSIALIIPSLFEKACAHFLPSFQQALNKAGYQLLLGYSDYSIEQEEKLLSTFLESRPAGVVLFGSEHSQRTHQLLEASNTPVLEIAELSSKASYLNIGVDHFEVGKACTRHLIEQGFKNVGFIGARGNHSTLQRQLHGWQSAMIENYLTPDHFLTTHEAPSSQLGAEGLAKLLLRDSSLNALVCSHEEIAIGALFECHRRVLKVPTDIAIICLEGSSMGEHAYPSLTSAEFDYERMGTKAAEKLLHAIKGEPEERPTSMGFKLKRRASTAIN
